Laboratory results from publication doi:10.1101/2023.02.19.529116 (bioRxiv, 2023).

B1: His-Hs-SAMD4A 2-156 (domain or fragment, human, UniProt Q9UPU9 2-156, looked up)
chain: MFRDQVGVLAGWFKGWNECEQTVALLSLLKRVSQTQARFLQLCLEHSLADCAELHVLEREANSPGIINQWQQESKDKVISLLLTHLPLLKPGNLDAKVEYMKLLPKILAHSIEHNQHIEESRQLLSYALIHPATSLEDRSALAMWLNHLEDRTST
B2: Smaug 70-281 (domain or fragment, Drosophila, UniProt Q23972 70-281, looked up)
chain: SNALFCEQVTTVTNLFEKWNDCERTVVMYALLKRLRYPSLKFLQYSIDSNLTQNLGTSQTNLSSVVIDINANNPVYLQNLLNAYKTFQPCDLLDAMSSSSSDKDSMPCYGSDFQITTSAQCDERKLYARKEDILHEVLNMLPLLKPGNEEAKLIYLTLIPVAVKDTMQQIVPTELVQQIFSYLLIHPAITSEDRRSLNIWLRHLEDHIQAAA
B3: Smoothened 970-1003 synthetic peptide (peptide, UniProt P91682 970-1003, looked up)
peptide: VPSYGEDELQQAMRLLNAASRQRTEAANEDFGGT
B4: Smo 970-1003 (Smoothened part of the single-chain construct) (peptide, UniProt P91682 970-1003, looked up)
chain: B3 peptide
B5: Smaug 73-278Δ156-196 (Smaug part of the single-chain construct) (domain or fragment, Drosophila, UniProt Q23972 73-278, looked up)
chain: LFCEQVTTVTNLFEKWNDCERTVVMYALLKRLRYPSLKFLQYSIDSNLTQNLGTSQTNLSSVVIDINANNPVYLQNLLNAYKTARKEDILHEVLNMLPLLKPGNEEAKLIYLTLIPVAVKDTMQQIVPTELVQQIFSYLLIHPAITSEDRRSLNIWLRHLEDHIQ

Assays:
[1] = molecular target: the molecule itself; assay: crystal structure
[2] = molecular target: B3; assay: ITC
[3] = molecular target: B2; assay: ITC
[4] = molecular target: B5; assay: crystal structure
[5] = molecular target: the molecule itself; assay: crystal structure; remark: listed apart in the source

Binder: B1
- stoichiometry N [1]: 2

Binder: B2
- stoichiometry N [2]: 1

Binder: B3
- Kd [3]: 800 nM

Binder: B4
- binding result [4]: binds

Binder: B5
- binding result [5]: binds
